Among the data in patent US20150125444A1 (AstraZeneca / MedImmune, published 2015) are Kd values, retold here.

By Kd is commonly meant the concentration at which binding is half-saturated. Read a low Kd as tighter binding.

Experiment [1] has as its target Human FcRn (extracellular domain) (human, UniProt P55899 24-297). Nature of the experiment: SPR (ProteOn XPR36), antibody immobilised, steady state, pH 6.0. On the procedure:
(§1) Experiments were performed using the ProteOn XPR36 surface plasmon resonance system (Bio Rad). Phosphate buffered saline with 0.005% Tween 20 (PBS/Tween), pH 7.4 was used as running buffer for most experiments with the exception of Human FcRn (extracellular domain) binding in which Phosphate buffered saline with 0.005% Tween 20 (PBS/Tween), pH 6.0 was used. All experiments were performed at 25° C. Antibodies were immobilized on a ProteOn™ GLC Sensor Chip (#176-5011) using EDAC (1-Ethyl-3-[3-dimethylaminopropyl]carbodiimide) and sulfo-NHS (N-hydroxysulfosuccinimide) to an R.U. (response unit) level of 4000-6000. C1q, FcγRI, FcγRIIa, FcγRIIb, FcγRIII(158V), FcγRIII(158F), and FcRn were then flowed over the IgG immobilized surface at various concentrations at a rate of 25 μl/minute for a long enough period of time to achieve steady state, or near steady state. Binding (if any could be determined) was quantified via steady state equilibrium binding analysis using the ProteOn software. Human FcγRI, FcγRIIa, FcγRIIb, FcγRIII(158V), FcγRIII(158F), and FcRn extracellular domains were generated via mammalian expression vectors in house. Human C1q was obtained from Quidel (CA).

The target in experiment [2] is T1, Human FcγRIIIa (158V) extracellular domain (human, UniProt P08637 17-208).
T1 construct: extracellular domain; Position 158 is the usual allotype numbering (mature protein), not the precursor numbering of the database entry; also called FcγRIII(158V)
T1 sequence (P08637 17-208 F176V): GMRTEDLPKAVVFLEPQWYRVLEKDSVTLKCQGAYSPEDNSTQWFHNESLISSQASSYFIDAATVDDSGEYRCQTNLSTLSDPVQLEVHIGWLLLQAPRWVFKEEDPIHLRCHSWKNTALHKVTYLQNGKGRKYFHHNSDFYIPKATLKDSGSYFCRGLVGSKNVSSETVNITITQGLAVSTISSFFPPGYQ
Nature of the experiment: SPR (ProteOn XPR36), antibody immobilised, steady state, pH 7.4. On the procedure: as §1

Experiment [3] concerns the target T2, Human FcγRIIIa (158F) extracellular domain (human, UniProt P08637 17-208).
T2 construct: extracellular domain; also called FcγRIII(158F)
Described as above. On the procedure:
as §1

In experiment [4] the target is T3, Human FcγRIIa extracellular domain (human, UniProt P12318 34-217).
T3 construct: extracellular domain
T3 sequence (looked up): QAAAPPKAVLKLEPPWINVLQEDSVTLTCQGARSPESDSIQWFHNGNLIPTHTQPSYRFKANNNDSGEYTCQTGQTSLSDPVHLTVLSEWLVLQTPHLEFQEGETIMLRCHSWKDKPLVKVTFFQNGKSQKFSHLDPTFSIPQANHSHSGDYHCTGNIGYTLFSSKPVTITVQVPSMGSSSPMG
The description is as above. On the procedure: as §1

The target in experiment [5] is T4, Human FcγRIIb extracellular domain (human, UniProt P31994 43-217).
T4 construct: extracellular domain
T4 sequence (looked up): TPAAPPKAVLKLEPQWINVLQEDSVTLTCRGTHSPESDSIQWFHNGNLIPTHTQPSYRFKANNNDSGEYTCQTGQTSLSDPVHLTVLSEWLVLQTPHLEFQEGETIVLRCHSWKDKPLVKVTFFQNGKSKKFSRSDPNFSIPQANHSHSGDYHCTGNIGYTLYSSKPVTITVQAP
The experiment is described as above. The method, then:
as §1

The target of experiment [6] is T5, Human FcγRIa extracellular domain (human, UniProt P12314 16-292).
T5 construct: extracellular domain
T5 sequence (P12314 16-292): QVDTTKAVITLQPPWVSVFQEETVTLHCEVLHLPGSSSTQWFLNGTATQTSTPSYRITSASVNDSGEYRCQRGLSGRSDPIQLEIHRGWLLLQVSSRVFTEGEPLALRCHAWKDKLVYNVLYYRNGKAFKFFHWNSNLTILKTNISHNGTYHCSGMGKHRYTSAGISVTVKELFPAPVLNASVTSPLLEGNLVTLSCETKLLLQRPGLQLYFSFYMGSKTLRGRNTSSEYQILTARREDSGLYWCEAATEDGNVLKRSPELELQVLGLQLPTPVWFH
The experiment is described as above. On the procedure: as §1

The next experiment addresses T6, Human C1q (human, UniProt P02745 23-245; P02746 28-253; P02747 29-245).
T6 construct: Bought complement protein; In the CDC assay C1q came with human serum
The description is as above. On the procedure:
as §1

Chain of Human FcRn (extracellular domain) (P55899 24-297): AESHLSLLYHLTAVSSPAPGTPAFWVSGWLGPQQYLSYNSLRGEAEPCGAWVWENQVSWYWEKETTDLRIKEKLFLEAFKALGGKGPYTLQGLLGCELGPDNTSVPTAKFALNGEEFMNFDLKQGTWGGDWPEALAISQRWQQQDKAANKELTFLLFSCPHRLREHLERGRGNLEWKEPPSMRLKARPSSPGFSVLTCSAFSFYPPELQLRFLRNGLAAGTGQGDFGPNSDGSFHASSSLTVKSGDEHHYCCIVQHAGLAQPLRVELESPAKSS
T2 sequence (P08637 17-208): as the sequence (P08637 17-208 F176V) above, with V160F counted along it
T6 sequence (P02745 23-245 limits assumed, chain 1 of 3): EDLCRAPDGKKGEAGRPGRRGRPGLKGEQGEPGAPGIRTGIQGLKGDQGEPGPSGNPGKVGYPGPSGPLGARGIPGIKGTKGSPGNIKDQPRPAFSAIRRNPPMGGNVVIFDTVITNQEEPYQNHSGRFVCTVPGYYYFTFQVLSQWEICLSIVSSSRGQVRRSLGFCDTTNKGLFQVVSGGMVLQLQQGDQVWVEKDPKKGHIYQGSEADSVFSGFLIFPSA
T6 sequence (P02746 28-253 limits assumed, chain 2 of 3): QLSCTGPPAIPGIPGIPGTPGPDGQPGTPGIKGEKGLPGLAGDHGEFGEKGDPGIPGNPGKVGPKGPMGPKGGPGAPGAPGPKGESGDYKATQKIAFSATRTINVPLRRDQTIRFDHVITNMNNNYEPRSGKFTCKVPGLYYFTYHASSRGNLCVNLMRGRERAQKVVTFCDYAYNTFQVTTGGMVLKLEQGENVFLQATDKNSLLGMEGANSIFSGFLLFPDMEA
T6 sequence (P02747 29-245 limits assumed, chain 3 of 3): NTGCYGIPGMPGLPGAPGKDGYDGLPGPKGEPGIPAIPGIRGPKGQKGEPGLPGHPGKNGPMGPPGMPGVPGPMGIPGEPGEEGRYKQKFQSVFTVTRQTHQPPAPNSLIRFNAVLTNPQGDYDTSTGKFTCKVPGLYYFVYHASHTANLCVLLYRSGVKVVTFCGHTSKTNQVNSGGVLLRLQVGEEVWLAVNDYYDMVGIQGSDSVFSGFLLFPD

B1: Ab4 (anti-C5a antibody 1B8) with YTE variant IgG1 Fc domain (antibody)
heavy: EVQLLESGGGLVQPGGSLRLSCAASGFTFSSYVMNWVRQAPGKGLEWVSSISPSGGRTWYADSVKGRFTISRDNSKNTLYLQMNSLRAEDTAVYYCARSDGSAAGFLGYWGQGTLVTVSSASTKGPSVFPLAPSSKSTSGGTAALGCLVKDYFPEPVTVSWNSGALTSGVHTFPAVLQSSGLYSLSSVVTVPSSSLGTQTYICNVNHKPSNTKVDKRVEPKSCDKTHTCPPCPAPELLGGPSVFLFPPKPKDTLYITREPEVTCVVVDVSHEDPEVKFNWYVDGVEVHNAKTKPREEQYNSTYRVVSVLTVLHQDWLNGKEYKCKVSNKALPAPIEKTISKAKGQPREPQVYTLPPSREEMTKNQVSLTCLVKGFYPSDIAVEWESNGQPENNYKTTPPVLDSDGSFFLYSKLTVDKSRWQQGNVFSCSVMHEALHNHYTQKSLSLSPGK
light: QSALTQPPSASGTPGQRVTISCSGTNSNIGSNYVFWYQQLPGTAPKLLIFESNRRPSGVPDRFSGSKSDTSASLAISGLRSEDEADYYCATWDDTLIAPVFGSGTKVTVLGQPKANPTVTLFPPSSEELQANKATLVCLISDFYPGAVTVAWKADSSPVKAGVETTTPSKQSNNKYAASSYLSLTPEQWKSHRSYSCQVTHEGSTVEKTVAPAEC
notes: Full IgG1; also called Ab4 YTE
As for B1, the Kd in experiment [1] stood at 270 nM; in experiment [2], 820 nM; in experiment [3], 2800 nM; in experiment [4] it was 1900 nM; in experiment [5], 3600 nM; in experiment [6], 43 nM. Besides, the affinity with Human C1q, expressed as Kd, was 400 nM.
